The target of assay [1] is T1, native Ovr110 protein on tumor cells (ZR-75-1, SKBR3, RL95.2, OVCAR3) (human, UniProt Q7Z7D3 25-282).
T1 sequence (looked up): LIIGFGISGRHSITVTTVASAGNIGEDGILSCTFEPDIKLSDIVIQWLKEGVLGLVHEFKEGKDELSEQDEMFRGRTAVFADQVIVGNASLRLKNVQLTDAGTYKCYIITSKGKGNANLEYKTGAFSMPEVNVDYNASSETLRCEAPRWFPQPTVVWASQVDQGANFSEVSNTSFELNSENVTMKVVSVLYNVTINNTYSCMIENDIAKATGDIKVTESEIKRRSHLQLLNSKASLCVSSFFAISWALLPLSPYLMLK
As to the kind of experiment: cell-based or functional assay.

The target in assay [2] is T1, native Ovr110 protein on tumor cells …. The experiment in a line: flow cytometry; hybridoma supernatant; SKBR3 cells.
Assay [3] addresses T2, recombinant Ovr110-hFc encoded by Ovr110 Construct 2 (human).
T2 construct: Captured on plates by goat anti-human IgG Fc; also called Ovr110-hFc (with TM)
T2 chain: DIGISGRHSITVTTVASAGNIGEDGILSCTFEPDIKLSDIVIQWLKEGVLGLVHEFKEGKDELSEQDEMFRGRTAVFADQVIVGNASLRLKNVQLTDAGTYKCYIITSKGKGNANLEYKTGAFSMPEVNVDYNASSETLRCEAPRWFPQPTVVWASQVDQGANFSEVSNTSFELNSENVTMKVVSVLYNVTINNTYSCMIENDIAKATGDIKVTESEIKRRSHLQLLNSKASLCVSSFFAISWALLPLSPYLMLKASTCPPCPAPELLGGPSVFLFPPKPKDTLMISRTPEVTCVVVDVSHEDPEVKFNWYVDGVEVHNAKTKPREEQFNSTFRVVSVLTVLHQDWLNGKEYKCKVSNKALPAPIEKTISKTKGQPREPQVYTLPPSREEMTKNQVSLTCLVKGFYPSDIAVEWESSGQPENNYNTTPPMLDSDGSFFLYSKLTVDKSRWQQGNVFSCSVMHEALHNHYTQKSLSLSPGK
As to the kind of experiment: competition ELISA; row = unlabeled blocking MAb; competitor = biotinylated detecting MAb Q11.12.3. On the technique in general: In an ELISA, binding on a coated surface is turned into a signal by an enzyme label.

Assay [4] addresses T1, native Ovr110 protein on tumor cells …. The experiment in a line: cell-based or functional assay. The source holds these as a separate data set.
In assay [5] the target is T2, recombinant Ovr110-hFc encoded by …. The experiment in a line: competition ELISA; row = unlabeled blocking MAb; competitor = biotinylated detecting MAb Q3.1.
Assay [6] has the same target. The experiment in a line: competition ELISA; row = unlabeled blocking MAb; competitor = biotinylated detecting MAb Q15.2.
The target of assay [7] is T1, native Ovr110 protein on tumor cells …. As to the kind of experiment: flow cytometry titration of fluorescein-labeled MAb on ZR75-1 cells; one-site fit. For orientation: Flow cytometry measures light scatter and fluorescence of single cells or particles in a stream.
Assay [8] deals with T2, recombinant Ovr110-hFc encoded by …. As to the kind of experiment: competition ELISA; row = unlabeled blocking MAb; competitor = biotinylated detecting MAb Q19.6.
Assay [9] has the same target. The experiment in a line: competition ELISA; row = unlabeled blocking MAb; competitor = biotinylated detecting MAb A87.1.
The target is the same in assay [10]. As to the kind of experiment: competition ELISA; row = unlabeled blocking MAb; competitor = biotinylated detecting MAb Q23.6.
Assay [11] concerns the target T1, native Ovr110 protein on tumor cells …. The experiment in a line: flow cytometry; purified MAb; ZR-75-1 cells.
Assay [12] deals with T2, recombinant Ovr110-hFc encoded by …. As to the kind of experiment: competition ELISA; row = unlabeled blocking MAb; competitor = biotinylated detecting MAb Q12.2.
Assay [13] shares this target. As to the kind of experiment: competition ELISA; row = unlabeled blocking MAb; competitor = biotinylated detecting MAb C6.3.
Assay [14] concerns the target T1, native Ovr110 protein on tumor cells …. As to the kind of experiment: flow cytometry; purified MAb; SKBR3 cells.
Assay [15] concerns the target T3, Ovr110 (amino acids 1-282; Ovr110 Construct 1 without the 6-His tag) expressed on transiently transfected … (human, UniProt Q7Z7D3 25-282).
T3 construct: signal peptide not removed here
T3 sequence: T1 sequence (looked up)
The experiment in a line: flow cytometry; purified MAb; Ovr110-transfected 293F cells.

The target of assay [16] is T2, recombinant Ovr110-hFc encoded by …. As to the kind of experiment: competition ELISA; row = unlabeled blocking MAb; competitor = biotinylated detecting MAb Q27.4.
Assay [17] addresses T3, Ovr110 (amino acids 1-282; Ovr110 …). The experiment in a line: flow cytometry; hybridoma supernatant; Ovr110-transfected 293F cells.

B1: Ovr110.Q27 (antibody, IgG1, V domains shown)
VH: QVQPQQSGAELARPGASVKLSCKASGYTFTTYWMQWVKQRPGQGLEWIGAIYPGDGDTRYTQKFKGKATLTADKSSSTAYMQLSSLASEDSAVYYCAINWGYAMDYWGQGTSVTVSS
VL: DIVLTQSHKIMSTSVGDRVSITCKASQDVRTAVAWYQQKPGQSPKLLIKSASYRYTGVPDRFSGSGSGTDFTFTISSVQAEDLAVYYCQQHYSNPTFGGGTKLEIKR
notes: Mouse hybridoma MAb; also called Q27.4; Q27.2
By Kd is commonly meant a measure of binding affinity in units of concentration. With B1, the “Percentage growth compared to wells with media alone; SKBR3; MAb 0.4 ug/mL with 1.0 ug/mL mAb-ZAP” value in assay [1] was determined as 68.9%. Further, the “Percentage growth compared to wells with media alone; SKBR3; MAb 2.0 ug/mL with 1.0 ug/mL mAb-ZAP” value in assay [1] turned out to be 73.6%. Besides, the “% Cells Positive” value was found to be 87.7% in assay [2]; 93.3% in assay [11]; 94.8% in assay [14]; 95.2% in [15]; 91.8% in assay [17]. The “Mean Fluorescence Intensity (MFI)” value in [2] is 1.48; in [17], 6.09. Also, the signal/noise ratio worked out at 5.5 in [3]; 1.4 in [5]; 11.8 in [6]; 6.5 in assay [8]; 6.7 in assay [9]; 1 in assay [10]. For the same molecule, the signal/noise ratio in assay [12] was 3.1; in [13], 1.2; in assay [16], 1. In addition, in assay [4], the “Percentage growth compared to wells with media alone; ZR-75-1; MAb 0.4 ug/mL with 1.0 ug/mL mAb-ZAP” value amounted to 60.6%. For the same molecule, the “Percentage growth compared to wells with media alone; ZR-75-1; MAb 2.0 ug/mL with 1.0 ug/mL mAb-ZAP” value in [4] was determined as 69.5%. For the same molecule, the Kd in assay [7] came to 4.76 nM. The figures for the MFI in [11], in [14] and in assay [15] were 2.92, 3.9 and 5.48, respectively.

The values above are taken from patent publication US20100136009A1 (DIADEXUS, published 2010).
